Test results taken from the Human Domainome abundance scans (Beltran et al. 2025).
± gives the uncertainty stated by the source.

test: abundance fitness (aPCA) (normalised: wild type 0, dead -1); higher = more abundant; growth selection in yeast, the domain comes from the species named; conditions: Homo sapiens

Row | Substance | abundance fitness
1 | E3 ubiquitin-protein ligase NEDD4-like V229E, Q96PU5 | 0.003 ± 0.077
2 | E3 ubiquitin-protein ligase NEDD4-like E232D, Q96PU5 | -0.354 ± 0.12
3 | E3 ubiquitin-protein ligase NEDD4-like Y210K, Q96PU5 | -0.269 ± 0.069
4 | E3 ubiquitin-protein ligase NEDD4-like V212R, Q96PU5 | -0.196 ± 0.057
5 | E3 ubiquitin-protein ligase NEDD4-like G207A, Q96PU5 | -0.252 ± 0.052
6 | E3 ubiquitin-protein ligase NEDD4-like P192E, Q96PU5 | -0.369 ± 0.079
7 | E3 ubiquitin-protein ligase NEDD4-like N215K, Q96PU5 | 0.165 ± 0.098
8 | E3 ubiquitin-protein ligase NEDD4-like P197D, Q96PU5 | -0.25 ± 0.11
9 | E3 ubiquitin-protein ligase NEDD4-like S225C, Q96PU5 | -0.29 ± 0.099
10 | E3 ubiquitin-protein ligase NEDD4-like S225M, Q96PU5 | -0.136 ± 0.092
11 | E3 ubiquitin-protein ligase NEDD4-like K202M, Q96PU5 | -0.496 ± 0.1
12 | E3 ubiquitin-protein ligase NEDD4-like T209L, Q96PU5 | -0.095 ± 0.073
13 | E3 ubiquitin-protein ligase NEDD4-like T218F, Q96PU5 | -0.028 ± 0.084
14 | E3 ubiquitin-protein ligase NEDD4-like R217E, Q96PU5 | -0.153 ± 0.085
15 | E3 ubiquitin-protein ligase NEDD4-like S230N, Q96PU5 | 0.108 ± 0.071
16 | E3 ubiquitin-protein ligase NEDD4-like S231C, Q96PU5 | -0.142 ± 0.09
17 | E3 ubiquitin-protein ligase NEDD4-like Y211P, Q96PU5 | -0.548 ± 0.087
18 | E3 ubiquitin-protein ligase NEDD4-like S184H, Q96PU5 | -0.437 ± 0.15
19 | E3 ubiquitin-protein ligase NEDD4-like S230V, Q96PU5 | -0.136 ± 0.059
20 | E3 ubiquitin-protein ligase NEDD4-like P196S, Q96PU5 | -0.138 ± 0.068
21 | E3 ubiquitin-protein ligase NEDD4-like T219G, Q96PU5 | -0.632 ± 0.055
22 | E3 ubiquitin-protein ligase NEDD4-like L226I, Q96PU5 | -0.186 ± 0.12
23 | E3 ubiquitin-protein ligase NEDD4-like P224G, Q96PU5 | -0.734 ± 0.065

Row | Substance | abundance fitness
24 | E3 ubiquitin-protein ligase NEDD4-like W221A, Q96PU5 | -0.035 ± 0.077
25 | E3 ubiquitin-protein ligase NEDD4-like E200R, Q96PU5 | -0.31 ± 0.065
26 | E3 ubiquitin-protein ligase NEDD4-like S231E, Q96PU5 | 0.134 ± 0.089
27 | E3 ubiquitin-protein ligase NEDD4-like K202V, Q96PU5 | -0.408 ± 0.059
28 | E3 ubiquitin-protein ligase NEDD4-like E232R, Q96PU5 | -0.999 ± 0.24
29 | E3 ubiquitin-protein ligase NEDD4-like M227S, Q96PU5 | 0.055 ± 0.063
30 | E3 ubiquitin-protein ligase NEDD4-like S225E, Q96PU5 | 0.041 ± 0.081
31 | E3 ubiquitin-protein ligase NEDD4-like M227G, Q96PU5 | -0.039 ± 0.064
32 | E3 ubiquitin-protein ligase NEDD4-like T209M, Q96PU5 | -0.093 ± 0.1
33 | E3 ubiquitin-protein ligase NEDD4-like K202D, Q96PU5 | -0.491 ± 0.064
34 | E3 ubiquitin-protein ligase NEDD4-like N213S, Q96PU5 | 0.213 ± 0.12
35 | E3 ubiquitin-protein ligase NEDD4-like V229S, Q96PU5 | 0.033 ± 0.067
36 | E3 ubiquitin-protein ligase NEDD4-like N215I, Q96PU5 | -0.077 ± 0.084
37 | E3 ubiquitin-protein ligase NEDD4-like N216G, Q96PU5 | 0.127 ± 0.052
38 | E3 ubiquitin-protein ligase NEDD4-like S184Y, Q96PU5 | -0.099 ± 0.12
39 | E3 ubiquitin-protein ligase NEDD4-like Y211E, Q96PU5 | -0.643 ± 0.058
40 | E3 ubiquitin-protein ligase NEDD4-like N205C, Q96PU5 | -0.142 ± 0.059
41 | E3 ubiquitin-protein ligase NEDD4-like L195V, Q96PU5 | 0.143 ± 0.17
42 | E3 ubiquitin-protein ligase NEDD4-like R217L, Q96PU5 | -0.208 ± 0.06
43 | E3 ubiquitin-protein ligase NEDD4-like H186N, Q96PU5 | -0.123 ± 0.13
44 | E3 ubiquitin-protein ligase NEDD4-like E232N, Q96PU5 | 0.022 ± 0.072
45 | E3 ubiquitin-protein ligase NEDD4-like H186G, Q96PU5 | -0.461 ± 0.067
46 | E3 ubiquitin-protein ligase NEDD4-like D204E, Q96PU5 | -0.505 ± 0.089

Row | Substance | abundance fitness
47 | E3 ubiquitin-protein ligase NEDD4-like T218A, Q96PU5 | -0.045 ± 0.057
48 | E3 ubiquitin-protein ligase NEDD4-like H186K, Q96PU5 | -0.222 ± 0.079
49 | E3 ubiquitin-protein ligase NEDD4-like N216T, Q96PU5 | 0.127 ± 0.086
50 | E3 ubiquitin-protein ligase NEDD4-like L226C, Q96PU5 | 0.063 ± 0.071
51 | E3 ubiquitin-protein ligase NEDD4-like W221S, Q96PU5 | 0.124 ± 0.063
52 | E3 ubiquitin-protein ligase NEDD4-like P194Q, Q96PU5 | 0.061 ± 0.079
53 | E3 ubiquitin-protein ligase NEDD4-like N216S, Q96PU5 | 0.065 ± 0.058
54 | E3 ubiquitin-protein ligase NEDD4-like T219C, Q96PU5 | -0.137 ± 0.09
55 | E3 ubiquitin-protein ligase NEDD4-like R223C, Q96PU5 | -0.552 ± 0.09
56 | E3 ubiquitin-protein ligase NEDD4-like P192W, Q96PU5 | -0.484 ± 0.072
57 | E3 ubiquitin-protein ligase NEDD4-like E201A, Q96PU5 | -0.1 ± 0.066
58 | E3 ubiquitin-protein ligase NEDD4-like H214M, Q96PU5 | 0.011 ± 0.083
59 | E3 ubiquitin-protein ligase NEDD4-like L190C, Q96PU5 | 0.09 ± 0.076
60 | E3 ubiquitin-protein ligase NEDD4-like P191Q, Q96PU5 | 0.024 ± 0.074
61 | E3 ubiquitin-protein ligase NEDD4-like L206R, Q96PU5 | 0.04 ± 0.056
62 | E3 ubiquitin-protein ligase NEDD4-like D204W, Q96PU5 | -1.4 ± 0.12
63 | E3 ubiquitin-protein ligase NEDD4-like S225F, Q96PU5 | -0.267 ± 0.081
64 | E3 ubiquitin-protein ligase NEDD4-like Y211C, Q96PU5 | -0.696 ± 0.08
65 | E3 ubiquitin-protein ligase NEDD4-like H186L, Q96PU5 | -0.185 ± 0.074
66 | E3 ubiquitin-protein ligase NEDD4-like E200M, Q96PU5 | -0.152 ± 0.074
67 | E3 ubiquitin-protein ligase NEDD4-like Q187I, Q96PU5 | -0.247 ± 0.11
68 | E3 ubiquitin-protein ligase NEDD4-like E201T, Q96PU5 | -0.098 ± 0.1
